In the nanobody polyreactivity screen of Harvey et al. (2022):

Assay: yeast display, Sf9 membrane polyspecificity reagent, FACS + sequencing; frameworks hold sequencing errors
Method in brief: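 Polyreactivity labels are assigned by the sorting gate from which each nanobody was recovered. The gates were low and high (top ~1%), set on anti-HA fluorescence for expression and streptavidin fluorescence for reagent binding. Before sorting, galactose-induced (36–48 hours) yeast display cells were stained for 1 hour at 4 °C with 10% biotinylated, detergent-solubilized Sf9 membrane reagent.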

| Sequence | polyreactivity (PSR sort gate) |
| --- | --- |
| QVQLVESAGGLVQAGGSLRLSCAASGSIFNVYDMGWYRQAPGKERELVAAITWSGGRTYYADSVKGRFTISRDNAKNTVYLQMNSLKPEDTAVSSCSARRWWVKSWRRFDYWGQGTQVTVSS | high polyreactivity |
| QVQLVESAGGLVQAGGSLRLSCAASGSIFSDNPMGWYIQAPGKERALVASITNSGSTNYADSVKGRFTISRDNAKNTVYLQMNILKPEDTAVYYCAFSFLYTYDNWGQGTQVTVSS | low polyreactivity |
| QVQLVESAGGLVQAGGSLRLSCAASGSILDRYAMGWDRQAPGKERELVAAITYSSGRTYYADSVKGRFTISRDNAKNTVYLQMNSLKPEDTAVYYCAARPFKRSNGGGQYYYWGQGTQLTVSS | high polyreactivity |
| QVQLVESAGGLVQAGGSLRLSCAASGSTFAIKAMGWYRQAPGKERELVAAISSSGSTNYADSVKGRFTISRDNAKNTVYLQMNSLKQEDTAVYYCAADRVWGTPQAYVPSHFDYWGQGTQVTVSS | low polyreactivity |
| QVQLVESAGGLVQAGGSLRLSCAASGSTFGKYAMGWDRHAPGKERELVAAISWSGGSTYYADSVKGRFTISRDNAKNTVYLQMNSLKPEDTAVYYCTVYRYDGDYWGQGTQVTVSS | high polyreactivity |
| QVQLVESAGGLVQAGGSLRLSCAASGSTFQWYAMGWSRQAPGKERELVAAIDSDGGTNYADSVKGRFTISRDNAKNTVYLQMNSLKPEDTAVYYCAVKPFYYGSEFDYWGQGTQVTVSS | low polyreactivity |
| QVQLVESAGGLVQAGGSLRLSCAASGSTFTGYAMGWYRQAPGKERELVAAITYSGVRTNYADSVKGRFTISRDNANNTVYLQMNSLKPEDTAVYYCNAAVVYVKMDYWGQGTQVTVSS | low polyreactivity |
| QVQLVESAGGLVQAGGSLRLSCAASGSTFTSYAMGWYRQAPGKERELVDAITRNGGTTYYADSVKGRFTISRDNAKNTVYLQMNSLKPEDTAVYYCNAPHYYYITSDRRFDYWGQGTQVTVSS | low polyreactivity |
| QVQLVESAGGLVQAGGSLRLSCAASGSTFYTYTMGWYRQAPGKERELVAAISSSGGDTYYADSVKGRFTISRDNAKNTVYLQMNSLKPEDTAVYYCAAAGPYGAVWRNDYWGQGTQVTVSS | low polyreactivity |
| QVQLVESAGGLVQAGGSLRLSCAASGSTLYQYTMGWYRQAPGKERELVAAISRSGGRTYYADSVKGRFTISRDNAKNTVYLQMNSLKPEDTAVYYCAVDPGAYDSWGQGTQVTVSS | high polyreactivity |
| QVQLVESAGGLVQAGGSLRLSCAASGSTQVIYHMGWNRQAPGNERYIVAAITYGGGRTYYADSVKGRFTISSDNAKNTVYLQMNSLKPEDTAYYYCAAYSYYYTWNPGYWGQGTQVTVSS | high polyreactivity |
| QVQLVESAGGLVQAGGSLRLSCAASGYIFYFYAMGWYRQAPGKERELVAAITSVGSTKYADSVKGRFTISRDNAKNTVYLQMNSLKPEDTAVYYCAARSWSGYGLYNYWGHGTQVTVSS | high polyreactivity |
| QVQLVESAGGLVQAGGSLRLSCAASGYTFDFYAMGWYRQAPGKERELVAAISKNDGTTYYADSVKGRFTISRDNAKNTVYLQMNSLKPEDTAVYYCAAESGYPVYTYVSSGDYWGQGTQVTVSS | low polyreactivity |
| QVQLVESAGGLVQAGGSLRLSCAASGYTFYRNAMGCYRQAPGKERELVAAISWRGGSTYYADSVKGRFTISRDNAKNTVYLQMNSLKPEDTAVYYCAAYFSYGGSTTGEEYWGQGTQVTVSS | high polyreactivity |
| QVQLVESAGGLVQAGGSLRLSCAATGFTFYTYAMGWYRQAPGKERELVADISSGGSTNYADSVKGRFTISRDNAKNTVYLQMNSLKPEDTAVYYSSAVYYFLDWYDYWGQGTQVNVSS | low polyreactivity |
| QVQLVESAGGLVQAGGSLRLSCAATGSTVDRNGMGWYRQAPGKERELVASISGRGGSTYYADSVKGRFTISRDHAKNTVYLQMNRLKPEDTAVYYCAVRYGFFSRYNSWGQGTQVTVSS | high polyreactivity |
| QVQLVESAGGLVQAGGSLRLSCAAYGSIIKRNAMGWYRQAPRKERQLVATSSSGDGSTRYADSVKWRFTISRDNAKNTVYLQMNSLKPEDTAVYYCALDFTYTYYRWKNPYRIGHDYWGHGTQVTVSS | low polyreactivity |
| QVQLVESAGGLVQAGGSLRLSCAPSGRIFGRYAMGWYRHAPGKERELVAAISFNGGSTSYADSVNGRFTISRDNAKNTVYLQMNTLKTEYTAVYYCAAKYRGFNYWGQGTQVTVSS | high polyreactivity |
| QVQLVESAGGLVQAGGSLRLSCAPSGRIFLTNAMGWYRQAPGKERELVAAITSGGSTYYADSVKGRFTISRDNAKNTVYLQMNSLKPEDTAVYYCNADTDRYWPYEYDYWGQGTQVTVSS | low polyreactivity |
| QVQLVESAGGLVQAGGSLRLSCDASGRIFTIYAMGWYSQAPGKERELVAAIRSSGDRTYYADSVKGRFTISRDNAKNTVYLQMNSQKPEDTAVYYCAARTRGGYYWGQGTQVTVSS | high polyreactivity |
| QVQLVESAGGLVQAGGSLRLSCDASGSILDSNAMGWYRQAHGKERELVAAITSGGSTYYADSVKGRFTISRDNAKNTVYLQMNSLKPEDTAVYYCAAVDIYKYYQYYAFPYYRYDSWGQGTQVTVSS | low polyreactivity |
| QVQLVESAGGLVQAGGSLRLSCDASGSTFVINAMGWYRPAPGKERELVAAISKSGGRTYYADSVKGRFTISRDNAKNTVYLQMNSLKPEDTAVYYCAAVSQRTRYGYWGQGTQVTVSS | high polyreactivity |

| Sequence | polyreactivity (PSR sort gate) |
| --- | --- |
| QVQLVESAGGLVQAGGSLRLSCHASGLTVRTYDMGWYRQEPGKERELVAAITTGGSTYYADSVKGRFSISRDNAKNTVYLQMNSLKPEDTAVYYCAADFIRYINRLLYDFWGQGTQVTVSS | low polyreactivity |
| QVQLVESAGGLVQAGGSLRLSGSASGIIIASNGMGWYRQPPGKERELVAAISSGGSTNYADSVKGRFTISRDNAKNTVYLQMNSLKPEDTAVYYCADDRWYREYDYWGQGTQVTVSS | low polyreactivity |
| QVQLVESAGGLVQAGGSLSIICAASGFTFSPYTMGWYRKAPGKERELVAAINRRGVSTYYADSVKGRFTISRDNEKNTVYLQMNSLKPEDTAVYYCAAEWYYQYSIYRYGYWGQGTQVTVSS | low polyreactivity |
| QVQLVESAGGLVQAGGSLSLICAASGSTFVVNALGWYRQAPGKERELVAAITTSGGSTYYADSVKGRFTISRDNAKNTVYLQMNSLKPEDTAVYYCAAETWGYYGYGVDYDYWGQGTQVTVSS | high polyreactivity |
| QVQLVESAGGLVQAGGSLSLSCAANGFTFTYYTMGWYRQAPGKERELVAAITENGGSTYYADSVKGRFTISRDNAKNTVYLQMNSLKPEDTAVYYCNARVWDYGGHGYDYWGQGTQVTVSS | low polyreactivity |
| QVQLVESAGGLVQAGGSLSLSCAASGRIFNLYAMGWYRKAPGKERELVAAIRGRGTSTYYADSVKGRFTISRDNAKNTVYLQMNSLKPEDTAVYYCAREGGYGPTLQDTSRYEYWGQGTQVTVSS | low polyreactivity |
| QVQLVESAGGLVQAGGSLSLSCAASGRTFVIYAMGSDRQAPGKERELVAGIDSGTSTYADSVKGRFTISRDNAKNTVYLQMNSLKPEDTAVYYCAADFAPDGAGWYIPGDYDSWGQGTQVTVSS | low polyreactivity |
| QVQLVESAGGLVQAGGSLSLSCAASGRTFVIYAMGWYRKAPGKERELVAGIDSGTSTYADSVKGRFTISRDNAKNTVYLQMNSLKPEDTAVYYCAADFAPDGAGWYIPGDYDSWGQGTQVTVSS | low polyreactivity |
| QVQLVESAGGLVQAGGSLSLSCAASGSTFAGYVMGWYRQAPGKERELVAAISRSGGSTYYADSVKGRFTISRDNAKNTVYLQMNSLKPEDTAVYYCAARNSPGLPGDYWGQGTQVTVSS | high polyreactivity |
| QVQLVESAGGLVQAGVSLRLSCAASGRTFVGNAMGGYRQAPGKERELVADITWSGDITYYADSVKGRFTIARDTAKNTVYLQMISLKPEDTAVYYCAADYHRRLTDYDYWGQGTQVTVSS | low polyreactivity |
| QVQLVESAGGLVQAVGSLRLSCAASGRICGIYAMGWYRQAPGKERELVAAISFIGGRTYYADSVKGRFTISRDNAKNTVYLQMNSLKPEDTAVYDCAARTVPSSRREYWGQGTQVTVSS | high polyreactivity |
| QVQLVESAGGLVQEGGRLRLSCAASGITLGAYAMGRYRQAPGKEREMVARIRIGGSKYYADSVKGRFTISRDNEKNTVYLQMNSLKPEDTAVYYCATRWQEYAGDYWGDYWGQGTHVTVSS | low polyreactivity |
| QVQLVESAGRLVQAGGSLRLSCAASGSTFYSYAMGWYRQAPGKEREFVAAITYSDGITYYADSVKGRFTISRDNAKNTVYLQMNSLKPEDTAVYYCAKAPIWGVTRKFDYWGQGNQVTVSS | high polyreactivity |
| QVQLVESAGRLVQAGGSLRLSCAPSGSIFSHNAMGWYRPAPGKERELVAAISRSGGSTYYADSVKGRFTISRDNAKNTVYLQMNSQKPEDTAVYYCNALGRISNHTLYDYWGQGTQVTVSS | low polyreactivity |
| QVQLVESAGVLVQAGGILRLSFAASGINFPYYAMGWYRKAPGKERELVAAISSSGGSSYYADSVKGRFTISRDNAKNTVYLKLNILKPEDTAVYYCAAHRYINYEYWGQGTQLTVSS | high polyreactivity |
| QVQLVESCGCLVQAVGSLRLSCAASGRIFGWYAMGWDRQAPVKERELVAAISSARRTYYADSVKGRFTISRDNAKNSVYLQMNSLKPEDTAVSYCAAYYYNDRMYYWGQGNQVTVSS | high polyreactivity |
| QVQLVESCGGLVQAGCSLRLSCAASGRIFSTNAMGWYRPAPGKERELVAAISSSGSRTYLADSVKGRFTISRDNAKNTVYLQMNSLKPEDTAVYFCNALRNYHHYEYDYWGQGTQVTVSS | high polyreactivity |
| QVQLVESCGGLVQAGGSHRLSCAASGRIFGVYVMGWYRQAPGKERELVAAISWSCSHTYYADSVKGRYTISRDNAKNTVYLQMNSLKPEDTAVYYCNADSYPDYTGPGLDWYDYWGHGTQVTVSS | low polyreactivity |
| QVQLVESCGGLVQAGGSLLLSCAASGGTFCDYAMVWYRQAPGKEREFVASITRSVSDTYYADSVKGRFTISRDNAKNTVYLQINSLKPEDTAVYYCKADRWYPWRSIMDYWGQGTQVSVSS | low polyreactivity |
| QVQLVESCGGLVQAGGSLRLSCAASGFIFSQNAMGWYIQAPGKEREIVAVISARGGRTYYADSVKGRFTISRDNAKNTVYLQMNSLKPEDTAVYDCARRDFWWSRRIFGYWGQGTQVTVSS | high polyreactivity |
| QVQLVESCGGLVQAGGSLRLSCAASGFTFPYYTMGWYRQAPGKERELVATITGGGSTNYADSVKGRFTISRDNAKNTVYLQKNSLKPEDTAVYYCAAKRWSGYGYYGWYDYWGQGTQVTVSS | high polyreactivity |
